According to patent US20240101645A1 (HENRY M JACKSON FOUNDATION FOR THE ADVANCEMENT OF MILITARY …, published 2024):

T1: HCoV-OC43 spike antigens (bead panel) (HCoV-OC43, UniProt P36334 14-1297)
T1 sequence: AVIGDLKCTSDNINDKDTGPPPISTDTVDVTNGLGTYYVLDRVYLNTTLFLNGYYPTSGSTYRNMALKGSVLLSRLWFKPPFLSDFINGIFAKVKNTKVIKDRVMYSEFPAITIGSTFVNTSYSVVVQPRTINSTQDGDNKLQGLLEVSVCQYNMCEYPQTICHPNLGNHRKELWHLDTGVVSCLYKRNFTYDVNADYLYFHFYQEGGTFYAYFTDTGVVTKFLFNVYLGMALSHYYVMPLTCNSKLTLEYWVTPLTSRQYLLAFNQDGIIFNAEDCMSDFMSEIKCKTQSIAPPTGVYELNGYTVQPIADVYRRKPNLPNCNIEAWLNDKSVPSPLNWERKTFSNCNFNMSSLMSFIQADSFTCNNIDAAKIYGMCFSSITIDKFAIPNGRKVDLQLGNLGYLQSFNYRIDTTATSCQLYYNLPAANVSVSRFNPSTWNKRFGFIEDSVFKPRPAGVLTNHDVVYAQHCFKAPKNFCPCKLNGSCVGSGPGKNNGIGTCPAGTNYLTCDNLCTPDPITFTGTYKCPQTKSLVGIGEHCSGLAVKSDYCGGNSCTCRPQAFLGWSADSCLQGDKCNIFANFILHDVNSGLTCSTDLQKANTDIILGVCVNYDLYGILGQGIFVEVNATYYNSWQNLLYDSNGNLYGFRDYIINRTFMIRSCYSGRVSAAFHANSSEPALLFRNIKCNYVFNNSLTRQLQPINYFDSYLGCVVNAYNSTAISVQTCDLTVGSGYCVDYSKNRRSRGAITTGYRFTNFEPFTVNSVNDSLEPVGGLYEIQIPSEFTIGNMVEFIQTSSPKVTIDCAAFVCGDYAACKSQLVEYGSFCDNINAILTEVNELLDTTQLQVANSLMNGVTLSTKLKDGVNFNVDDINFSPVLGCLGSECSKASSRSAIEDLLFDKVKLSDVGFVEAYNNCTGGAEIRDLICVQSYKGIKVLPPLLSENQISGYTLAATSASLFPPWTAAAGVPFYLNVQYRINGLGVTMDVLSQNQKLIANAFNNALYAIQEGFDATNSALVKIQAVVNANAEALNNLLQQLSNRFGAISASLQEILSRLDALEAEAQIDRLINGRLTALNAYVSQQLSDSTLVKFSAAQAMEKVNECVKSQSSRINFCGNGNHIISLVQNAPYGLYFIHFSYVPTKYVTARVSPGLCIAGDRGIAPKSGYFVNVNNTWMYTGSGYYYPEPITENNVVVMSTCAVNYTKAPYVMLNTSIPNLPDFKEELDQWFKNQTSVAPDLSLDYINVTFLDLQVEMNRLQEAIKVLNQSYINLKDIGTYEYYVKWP

T2: HCoV-HKU1 spike antigens (bead panel) (HCoV-HKU1, UniProt Q5MQD0 13-1300)
T2 sequence: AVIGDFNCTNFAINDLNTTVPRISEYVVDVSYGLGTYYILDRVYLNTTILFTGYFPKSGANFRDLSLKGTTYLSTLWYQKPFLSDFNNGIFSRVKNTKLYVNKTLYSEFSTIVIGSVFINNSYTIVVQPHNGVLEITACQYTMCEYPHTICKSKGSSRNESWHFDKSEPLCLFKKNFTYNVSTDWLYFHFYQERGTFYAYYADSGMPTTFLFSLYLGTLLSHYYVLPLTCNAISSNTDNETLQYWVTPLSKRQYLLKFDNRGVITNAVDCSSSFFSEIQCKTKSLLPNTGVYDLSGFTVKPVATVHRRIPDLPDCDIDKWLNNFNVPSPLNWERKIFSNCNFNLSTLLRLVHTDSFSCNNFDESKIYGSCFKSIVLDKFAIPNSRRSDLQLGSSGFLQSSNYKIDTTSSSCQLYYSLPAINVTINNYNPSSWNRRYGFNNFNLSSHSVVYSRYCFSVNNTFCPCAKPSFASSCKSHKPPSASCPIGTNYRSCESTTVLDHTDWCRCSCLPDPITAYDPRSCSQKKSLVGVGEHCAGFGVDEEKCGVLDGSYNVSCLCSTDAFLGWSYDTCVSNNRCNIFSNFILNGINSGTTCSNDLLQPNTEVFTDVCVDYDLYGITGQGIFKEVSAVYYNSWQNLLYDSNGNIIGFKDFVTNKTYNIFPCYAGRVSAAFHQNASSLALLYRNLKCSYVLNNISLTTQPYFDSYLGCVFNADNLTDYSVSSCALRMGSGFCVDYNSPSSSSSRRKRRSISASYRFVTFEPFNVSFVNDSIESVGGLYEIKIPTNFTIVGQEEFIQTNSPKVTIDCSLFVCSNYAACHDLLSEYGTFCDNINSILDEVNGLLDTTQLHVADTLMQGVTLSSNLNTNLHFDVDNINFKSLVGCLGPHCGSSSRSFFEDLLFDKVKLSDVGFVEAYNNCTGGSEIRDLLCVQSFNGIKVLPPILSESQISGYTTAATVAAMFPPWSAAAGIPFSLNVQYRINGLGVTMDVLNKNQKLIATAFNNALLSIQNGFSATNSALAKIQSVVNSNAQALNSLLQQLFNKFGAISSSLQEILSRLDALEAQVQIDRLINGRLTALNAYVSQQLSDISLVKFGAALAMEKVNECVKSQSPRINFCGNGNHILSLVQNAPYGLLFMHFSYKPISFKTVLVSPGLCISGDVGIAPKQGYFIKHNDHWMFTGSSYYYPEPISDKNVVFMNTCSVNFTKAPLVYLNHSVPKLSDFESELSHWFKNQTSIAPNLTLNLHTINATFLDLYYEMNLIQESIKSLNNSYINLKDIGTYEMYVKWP

T3: MERS-CoV spike antigens (bead panel) (MERS-CoV, UniProt K9N5Q8 18-1296)
T3 sequence: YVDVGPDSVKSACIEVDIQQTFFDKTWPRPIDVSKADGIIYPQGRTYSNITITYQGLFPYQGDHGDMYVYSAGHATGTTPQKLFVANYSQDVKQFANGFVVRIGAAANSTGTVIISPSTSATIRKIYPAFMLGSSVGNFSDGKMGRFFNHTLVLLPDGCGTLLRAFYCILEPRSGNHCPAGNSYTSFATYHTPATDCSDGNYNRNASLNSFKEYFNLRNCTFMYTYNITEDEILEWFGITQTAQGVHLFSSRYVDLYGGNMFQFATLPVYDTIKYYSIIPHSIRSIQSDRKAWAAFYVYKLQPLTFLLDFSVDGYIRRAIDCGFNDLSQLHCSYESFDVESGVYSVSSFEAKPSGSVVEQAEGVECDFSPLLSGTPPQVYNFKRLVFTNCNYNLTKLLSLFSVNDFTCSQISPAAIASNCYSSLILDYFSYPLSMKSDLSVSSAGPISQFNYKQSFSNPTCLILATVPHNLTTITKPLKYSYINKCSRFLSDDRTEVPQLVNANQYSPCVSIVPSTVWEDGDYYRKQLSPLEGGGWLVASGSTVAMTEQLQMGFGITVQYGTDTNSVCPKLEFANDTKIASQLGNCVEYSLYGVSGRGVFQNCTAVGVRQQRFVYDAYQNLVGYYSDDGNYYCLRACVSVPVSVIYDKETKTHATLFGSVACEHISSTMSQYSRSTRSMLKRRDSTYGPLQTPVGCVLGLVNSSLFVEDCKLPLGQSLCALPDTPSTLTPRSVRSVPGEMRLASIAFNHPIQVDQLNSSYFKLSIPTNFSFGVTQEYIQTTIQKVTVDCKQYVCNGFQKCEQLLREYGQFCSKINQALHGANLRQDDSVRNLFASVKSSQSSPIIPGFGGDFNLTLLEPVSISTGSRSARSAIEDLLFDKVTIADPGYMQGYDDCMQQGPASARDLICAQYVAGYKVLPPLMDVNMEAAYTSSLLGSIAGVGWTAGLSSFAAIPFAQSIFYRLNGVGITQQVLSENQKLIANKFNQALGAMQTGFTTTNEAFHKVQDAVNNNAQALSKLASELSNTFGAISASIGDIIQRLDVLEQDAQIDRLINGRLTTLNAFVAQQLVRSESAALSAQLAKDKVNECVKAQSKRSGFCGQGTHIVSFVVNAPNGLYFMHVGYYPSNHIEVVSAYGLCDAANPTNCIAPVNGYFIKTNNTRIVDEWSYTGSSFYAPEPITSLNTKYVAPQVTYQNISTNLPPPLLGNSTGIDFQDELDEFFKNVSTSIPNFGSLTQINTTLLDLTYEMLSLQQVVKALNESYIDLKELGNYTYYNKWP

T4: HCoV-229E spike antigens (bead panel) (HCoV-229E, UniProt P15423 16-1115)
T4 sequence: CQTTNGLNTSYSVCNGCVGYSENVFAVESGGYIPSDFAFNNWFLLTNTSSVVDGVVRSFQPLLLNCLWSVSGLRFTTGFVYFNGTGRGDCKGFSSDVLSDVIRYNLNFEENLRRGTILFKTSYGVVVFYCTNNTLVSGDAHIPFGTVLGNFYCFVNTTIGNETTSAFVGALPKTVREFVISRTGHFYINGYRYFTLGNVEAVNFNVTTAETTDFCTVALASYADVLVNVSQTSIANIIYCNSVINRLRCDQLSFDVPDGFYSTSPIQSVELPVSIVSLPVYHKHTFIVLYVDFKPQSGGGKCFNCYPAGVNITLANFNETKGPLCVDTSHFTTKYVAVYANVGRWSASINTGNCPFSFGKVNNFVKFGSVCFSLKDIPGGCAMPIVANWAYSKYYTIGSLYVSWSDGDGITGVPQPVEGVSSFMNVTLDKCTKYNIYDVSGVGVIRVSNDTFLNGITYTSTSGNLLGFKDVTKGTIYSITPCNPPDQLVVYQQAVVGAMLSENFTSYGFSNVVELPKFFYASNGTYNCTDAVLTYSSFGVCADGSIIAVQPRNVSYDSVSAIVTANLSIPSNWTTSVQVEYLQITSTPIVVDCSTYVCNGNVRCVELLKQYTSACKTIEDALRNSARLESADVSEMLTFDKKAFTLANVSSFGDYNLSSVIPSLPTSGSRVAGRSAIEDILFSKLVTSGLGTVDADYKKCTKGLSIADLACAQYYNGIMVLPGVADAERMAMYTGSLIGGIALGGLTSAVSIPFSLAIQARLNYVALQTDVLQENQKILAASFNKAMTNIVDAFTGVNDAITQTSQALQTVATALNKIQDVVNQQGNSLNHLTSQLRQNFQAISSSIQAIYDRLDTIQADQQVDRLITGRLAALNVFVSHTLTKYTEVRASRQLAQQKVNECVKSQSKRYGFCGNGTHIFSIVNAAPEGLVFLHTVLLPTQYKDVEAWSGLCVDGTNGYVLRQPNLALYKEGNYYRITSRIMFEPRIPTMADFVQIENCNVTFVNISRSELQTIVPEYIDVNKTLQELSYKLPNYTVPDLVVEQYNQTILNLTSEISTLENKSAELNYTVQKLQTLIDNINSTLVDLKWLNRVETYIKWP

B1: COV_2173 (antibody, V domains shown)
VH: QVQLQESGPGLVKPSETLSLTCSVSGDSISSSDYSWGWIRQPPGKGLEWIGTIYYIKNTYYNPSLRSRVTLSVDTSKNLFSLKLSSVTAADTAVYYCARERPPFDVVVVPAARPYNWFDPWGLGTLVIVSS
VL: QSVLMQPPSVSGAPGQRVTISCTGSSSNIGAGYDVHWYQQLPGTAPKLLIYGNNNRPSGVPDRFSGSKSGTSASLAITGLQADDEADYYCQSYDSSLSGSKVFGGGTKLTVL
notes: human IgG1
B2: COV_2165 (antibody, V domains shown)
VH: EVQLVESGGGLVQPGGSLRLSCAASGFTFSSYSMNWVRQAPGKGLEWVSYISSSSSTIYYADYVKGRFTISRDNAKNSLYLQMNSLRAEDRAVYYCARVARRDVAPATIAAYFLDYWGQGTLVTVSS
VL: EIVLTQSPATLSLSPGERATLSCRASQSLSSYLAWYQQKPGQAPRLLIYDASTRATGIPARFSGSGSGTDFTLTISSLEPEDFAVYYCQQRSTWPRGFTFGPGTKVDIK
notes: human IgG1
B3: COV_3103 (antibody, V domains shown)
VH: EVQLVESGGGLVQPGRSLRLSCVASGFIVENFAMHWVRQAPGKGLEWVSGITWNSASTGYVESVKGRFSISRDNGENSMFLEMNSLRPDDTALYYCVKATGSYWGFPMDVWGQGTTVTVSS
VL: EIVLTQSPGTLSLSPGEGGTLSCRASQSVRSNYLAWYQRKPGQAPRLLIYATSNRATGIPDRFSGSGSGTDFTLTISRLEPEDFAVYFCQHYGDSPYTFGQGTKLEIKR
notes: human IgG1

How the values were obtained:
[1] = biological target: T5, SARS-CoV-2 S on pseudovirions (Wuhan Hu-1 / IL1/2020, last 18 amino acids removed) (SARS-CoV-2, UniProt P0DTC2 14-1273); assay: cell-based or functional assay
[2] = biological target: T5, SARS-CoV-2 S on pseudovirions (Wuhan …); assay: cell-based or functional assay; remark: listed apart in the source
[3] = biological target: T1, HCoV-OC43 spike antigens (bead panel); assay: multiplex bead assay
[4] = biological target: SARS-CoV-1 spike antigens (bead panel) (SARS-CoV-1, UniProt P59594 14-1195); assay: multiplex bead assay
[5] = biological target: T2, HCoV-HKU1 spike antigens (bead panel); assay: multiplex bead assay
[6] = biological target: T3, MERS-CoV spike antigens (bead panel); assay: multiplex bead assay
[7] = biological target: T4, HCoV-229E spike antigens (bead panel); assay: multiplex bead assay

| Binder | IC50, pseudotyped neutralization assay [1] | Mean IC80, pSV neutralization [2] | binding result [3] | Mean IC50, pSV neutralization [2] | binding result [4] | binding result [5] | binding result [6] | binding result [7] |
| --- | --- | --- | --- | --- | --- | --- | --- | --- |
| B1 | 4 ng/mL | 0.01 µg/ml | no binding |  |  |  |  |  |
| B2 | 10 ng/mL | 0.04 µg/ml | no binding | 0.02 µg/ml | no binding |  |  |  |
| B3 |  |  |  |  | no binding | no binding | no binding | no binding |
